Measured values reported in article PMC4906023.

Target: His6-GyrB subunit of M. tuberculosis DNA gyrase (M. tuberculosis H37Rv) (UniProt P9WG45)
Test: SPR; BIAcore T200; […], association 180 s, dissociation 600 s; HBS-N

B1: MParE2 without the His6-tag (natural protein)
chain: MTRRLRVHNGVEDDLFEAFSYYADAAPDQIDRLYNLFVDAVTKRIPQAPNAFAPLFKHYRHIYLRPFRYYVAYRTTDEAIDILAVRHGMENPNAVEAEISGRTFE
Kd: 4.75 µM
